The target in assay [1] is GIRK2 homotetrameric channel (mouse GIRK2A) (mouse).
The target in assay [2] is GIRK2HA homotetrameric channel (HA-tagged GIRK2) (mouse).
Assay [3] addresses GIRK1/2HA heterotetrameric channel (GIRK1 with GIRK2HA) (not stated | mouse) (UniProt P63251).
In assay [4] the target is GIRK1/2 heterotetrameric channel (GIRK1 with GIRK2) (not stated | mouse) (UniProt P63251).
Assay [5] deals with GIRK2 homotetrameric channel (mouse GIRK2A) (mouse). The source holds these as a separate data set.
Assay [6] concerns the target GIRK1/2 heterotetrameric channel (GIRK1 with GIRK2) (not stated | mouse) (UniProt P63251). The source holds these as a separate data set.

These results are taken from paper PMC12748987.

Take “Gβ·YFPGγ (Gβ1 coexpressed with N-terminally YFP-labeled Gγ2) (from UniProt P62873 1-340; P59768 1-71) (complex)”: the Kd, WTM model fit with fixed µ = 0.3 of single-channel Po against Gβ·YFPGγ surface density in assay [1] came to 17.3 µM. Also, the Kd, WTM model fit (µ = 0.3) of whole-cell currents against Gβ·YFPGγ surface density in individual oocytes (Fig. 4b, experiment #4) in assay [2] was determined as 45 µM. In assay [3], this substance registered a Kd, WTM model fit (µ = 0.3) of whole-cell currents against Gβ·YFPGγ surface density in individual oocytes (Fig. 4b, experiment #4) of 9 µM. Besides, the Kd, WTM model fit (µ = 0.3) of whole-cell currents against Gβ·YFPGγ surface density, mean of all experiments in assay [4] was determined as 5.5 µM. In assay [5], the Kd, WTM model fit with fixed µ = 0.3 of whole-cell currents of GIRK2 or GIRK2HA against Gβ·YFPGγ surface density (mean of experiments) was 31 µM and the Kd, WTM model fit with fixed µ = 0.44 of whole-cell currents of GIRK2 or GIRK2HA against Gβ·YFPGγ surface density (mean of experiments) was determined as 11 µM.
“Gβγ (Gβ1γ2) coexpressed in Xenopus oocytes (from UniProt P62873 1-340; P59768 1-71) (complex)” yielded a time constant of the single-exponential decay of channel activity (NPo) after excision of the patch into Gβγ-free bath solution with ATP and Na+ in assay [6] greater than 2 min.
